Patent US20070287665A1 (SOCIETE DE CONSEILS DE RECHERCHES ET D APPLICATIONS …, published 2007)
Bridge positions count the residues as written; N and C are the ends. Square brackets hold non-standard residues; d marks the D form. Ends that are not written are not given here. dDip = N[C@@H](C(=O)O)C(c1ccccc1)c1ccccc1; Phe(4-Cl) = N[C@@H](Cc1ccc(Cl)cc1)C(=O)O; Phe(4-F) = N[C@@H](Cc1ccc(F)cc1)C(=O)O; 3Pal = N[C@@H](Cc1cccnc1)C(=O)O; Tle = CC(C)(C)[C@H](N)C(=O)O; Nal = naphthylalanine

T1: U-II receptors (rat thoracic aorta tissue) (rat, UniProt P49684 1-386)
T1 sequence (looked up): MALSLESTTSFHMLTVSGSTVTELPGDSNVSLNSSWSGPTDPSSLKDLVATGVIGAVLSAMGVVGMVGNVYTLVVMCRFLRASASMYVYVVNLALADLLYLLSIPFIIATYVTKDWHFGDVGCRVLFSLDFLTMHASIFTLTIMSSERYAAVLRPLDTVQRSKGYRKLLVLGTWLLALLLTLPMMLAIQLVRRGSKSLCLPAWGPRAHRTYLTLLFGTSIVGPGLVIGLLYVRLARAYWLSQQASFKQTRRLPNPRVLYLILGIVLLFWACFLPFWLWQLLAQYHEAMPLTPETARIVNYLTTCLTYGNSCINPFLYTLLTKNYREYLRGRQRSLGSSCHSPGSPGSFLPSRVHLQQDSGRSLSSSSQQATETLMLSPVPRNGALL


Legend:
[1] = target: U-II receptors (rat thoracic aorta tissue) (rat) (UniProt P49684); experiment: method not described; presumably binding to rat aorta tissue / U-II receptors
[2] = target: U-II receptors (rat thoracic aorta tissue) (rat) (UniProt P49684); experiment: cell-based or functional assay
[3] = target: T1, U-II receptors (rat thoracic aorta …); experiment: cell-based or functional assay
[4] = target: T1, U-II receptors (rat thoracic aorta …); experiment: cell-based or functional assay; remark: listed apart in the source

SRIF Antagonist IC50s (nM) against U-II Stimulation of Rat Aorta Phasic Contractions [3] [nM]	Molecule	further results
12	XXYXKTCX (Cpa (p-chlorophenylalanine) at 1; D-Cys at 2; D-Trp at 4; Nal (naphthylalanine) at 8; C-terminal amide) [Cpa-D-Cys-Tyr-D-Trp-Lys-Thr-Cys-Nal-NH2]	
1090	[Phe(4-F)][dC][3Pal][dW]KVC[Nal]-NH2 (disulfide 2-7 (inferred)) [4Fpa-D-Cys-Pal-D-Trp-Lys-Val-Cys-Nal-NH2]	
1800	[Nal][dC]H[dW]KVC[dDip]-NH2 (disulfide 2-7 (inferred)) [Nal-D-Cys-His-D-Trp-Lys-Val-Cys-D-Dip-NH2]	

The remaining lines, values behind:

Molecule	SRIF Antagonist IC50s (nM) against U-II Stimulation of Rat Aorta Phasic Contractions [3] [nM]	further results
Cpa-c[D-Cys-Pal-D-Trp-Lys-Val-Cys]-Cpa-amide (peptide)		Kd [1]: 240 nM; IC50 against U-II-induced phasic contractions in circular rat thoracic aorta strips [2]: 100 nM
[Phe(4-Cl)][dC]FWKTCV-NH2 (disulfide 2-7; N-terminus assumed; SMILES CC(C)[C@H](NC(=O)[C@@H]1CSSC[C@@H](NC(=O)[C@@H](N)Cc2ccc(Cl)cc2)C(=O)N[C@@H](Cc2ccccc2)C(=O)N[C@@H](Cc2c[nH]c3ccccc23)C(=O)N[C@@H](CCCCN)C(=O)N[C@@H]([C@@H](C)O)C(=O)N1)C(N)=O) [Cpa-c[D-Cys-Phe-Trp-Lys-Thr-Cys]-Val-NH2]		IC50 against U-II-induced phasic contractions in circular rat thoracic aorta strips [4]: 2 nM
[Phe(4-F)][dC][3Pal][dW]K[Tle]C[Nal]-NH2 (disulfide 2-7 (inferred)) [4Fpa-D-Cys-Pal-D-Trp-Lys-Tle-Cys-Nal-NH2]	100	
[Phe(4-Cl)][dC][3Pal][dW]K[Tle]C[Nal]-NH2 (disulfide 2-7 (inferred)) [Cpa-D-Cys-Pal-D-Trp-Lys-Tle-Cys-Nal-NH2]	10	
[Phe(4-Cl)][dC][3Pal]WKTC[Phe(4-Cl)]-NH2 (disulfide 2-7 (inferred)) [Cpa-D-Cys-Pal-Trp-Lys-Thr-Cys-Cpa-NH2]	2	
